Measurements: article PMC10325903, “Prediction of cooperative homeodomain DNA binding sites from high-throughput-SELEX data”

Molecular target: Bsx HD fragment (UniProt Q810B3 84-193)
Assay: EMSA; EMSA, 34 nM IRDye700 probe, room temperature 20 min, 4% polyacrylamide gel 150 V 2 h; binding buffer as in cited ref 35 (not given)
Details: protein: recombinant; tags: N-terminal 6xHis (pET-14b or pET-14P; may be cleaved); chain copies: 2; label: 5' IRDye700 on bottom strand; blunt

Chain of Bsx HD fragment (Q810B3 84-193): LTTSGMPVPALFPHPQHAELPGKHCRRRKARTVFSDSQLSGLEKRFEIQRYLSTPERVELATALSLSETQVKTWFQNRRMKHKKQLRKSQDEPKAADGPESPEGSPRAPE

Row | Binder | cooperativity factor (tau)
1 | Bsx_SELEX_1 (dsDNA) DNA 1: TATGAAATCAATTATCTCATTAAGTTCGTAGTGCGGGCGTGGCT DNA 2: AGCCACGCCCGCACTACGAACTTAATGAGATAATTGATTTCATA | 9.8 ± 1 Tau cooperativity factor
2 | Bsx_SELEX_1+1 (dsDNA) DNA 1: TATGAAATCAATTATCGTCATTAAGTTCGTAGTGCGGGCGTGGCT DNA 2: AGCCACGCCCGCACTACGAACTTAATGACGATAATTGATTTCATA | 0.9 ± 0.3 Tau cooperativity factor
